Positions count from the first letter of the chain named.

For one assay, the target named is human NGF (R&D system) (human, UniProt P01138 122-241). The assay can be described thus: cell-based or functional assay.
Assay [1] addresses recombinantly produced human-NGF (human, UniProt P01138 122-241, limits assumed). The assay can be described thus: ELISA, human NGF coated, IgG titrated. The method, then: NGF binding ELISA assay: In human NGF binding ELISA, Corning 3366 high binding 96 well plates were coated with recombinantly produced human-NGF at 1 μg per ml, 50 μl/well in 1×PBS, and incubated overnight at 4° C. The plates were washed and blocked with 250 μl of 1×PBS/1% BSA at least 30 minutes at room temperature. 50 μl of culture supernatants, after 1:1 diluted by the PBS/BSA diluent, or the purified antibodies diluted serially from a certain concentration with the diluent, were added per well, and incubated at 37° C. for 2 hours. After washing, a secondary antibody, goat anti-human IgG Fc AP (Southern biotech) was applied at a dilution of 1:3000 in PBS/BSA. The plates were incubated for 1 hour at RT and washed. After adding the PNPP substrate, the ODs at 405 nm were read.
NGF binding ELISA assay: NGF binding ELISA assay was performed as described in Example 1.

The target in the next assay is T1, human NGF-Fc4 (IgG4-Fc) (human, UniProt P01138 122-241, limits assumed).
T1 construct: not shown: human IgG4 Fc
The assay can be described thus: competition ELISA: antibody pre-incubated with human NGF-Fc4, binding to coated TrkA-Fc. The method, then: TrkA inhibition ELISA assay: The TrkA inhibition ELISA assay was designed to identify the anti-NGF antibodies that have the capability of blocking NGF binding to its receptor TrkA. In this assay, human TrkA-Fc (IgG1-Fc, Sinobiological) was coated at 1 μg/ml in the 96-well plates and incubated overnight at 4° C. Antibodies, from cell culture supernatants or after purified, in different dilutions, were pre-incubated with human NGF-Fc4 (IgG4-Fc) at a final concentration of 70 ng/mL for 2 hours in 37° C. A total of 50 μl of the reaction mixtures were then transferred into the TrkA-Fc coated 96-well plates and incubated in room temperature for 2 hours. After washing, a secondary mouse anti-human IgG4-AP (Southern biotech) was added at a dilution of 1:1000 After one hour in room temperature, the plates were washed, and after adding PNPP substrate, ODs at 405 nm were read.
TrkA inhibition ELISA assay: The optimized anti-NGF antibodies Ab4, Ab6, Ab10, Ab16, Ab36, Ab37, Ab44, Ab45, Ab46, Ab47, Ab48, Ab49, Ab52, Ab54, Ab55, Ab56, Ab57, Ab58, Ab59, Ab60, Ab61 and the reference antibody Tanezumab (Pfizer), a humanized antibody from mouse hybridoma were further analyzed for their abilities to block NGF binding to its receptor TrkA. TrkA inhibition assay was performed as described in Example 1.

For a further assay, the target named is T2, human NGF-Fc protein (human, UniProt P01138 122-241, limits assumed).
T2 construct: not shown: human IgG1 Fc or IgG4 Fc
Briefly: BLI (Octet Red), human NGF-Fc captured on anti-human Fc sensors, Fab in solution. The method, then: FortéBio BioLayer Interferometry (BLI) technology was chosen as the method for affinity determination by using Octet Red system. NGF is a homodimer protein in its nature form. […] For the purpose of affinity measurement, monovalent Fab fragments of IgG were prepared using Fab preparation kit (Pierce).
After purification, the Fab concentration was determined by OD280 according to the extinction coefficient calculated based on its sequence. […] For each assay, an array of Fab concentrations from about 50 nM to less than 1 nM in kinetic buffer (PALL) were tested by NGF-Fc sensors with the association time of 300 seconds and dissociation time of 1200 seconds. The kinetic data were analyzed using program Data Analysis HT 10.0 according to the manual. All the tests were repeated at least twice in independent assays.

The target in a further assay is T3, BDNF (UniProt P23560 129-247).
T3 construct: also called brain-derived neurotrophic factor
T3 sequence (looked up): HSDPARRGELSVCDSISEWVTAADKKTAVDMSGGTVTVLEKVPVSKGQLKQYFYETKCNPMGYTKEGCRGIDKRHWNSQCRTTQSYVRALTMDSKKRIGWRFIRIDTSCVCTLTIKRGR
Briefly: ELISA.

The target in the next assay is T4, NT3 (UniProt P20783 139-257).
T4 construct: also called neurotrophin-3
T4 sequence (looked up): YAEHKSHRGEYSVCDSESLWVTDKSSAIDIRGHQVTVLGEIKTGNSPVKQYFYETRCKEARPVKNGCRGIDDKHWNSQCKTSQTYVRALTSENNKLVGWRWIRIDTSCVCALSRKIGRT
The assay can be described thus: ELISA.

The target of another assay is T5, NT4 (UniProt P34130 81-210).
T5 construct: also called neurotrophin-4
T5 sequence (looked up): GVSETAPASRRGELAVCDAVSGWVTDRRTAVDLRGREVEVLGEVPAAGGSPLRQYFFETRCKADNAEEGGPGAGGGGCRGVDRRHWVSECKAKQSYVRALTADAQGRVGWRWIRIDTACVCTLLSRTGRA
The assay can be described thus: ELISA.

T2 sequence (P01138 122-241 limits assumed): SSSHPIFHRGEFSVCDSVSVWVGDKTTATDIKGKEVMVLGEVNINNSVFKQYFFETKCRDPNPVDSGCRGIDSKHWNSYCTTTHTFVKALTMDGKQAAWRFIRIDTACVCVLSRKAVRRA
recombinantly produced human-NGF, sequence (P01138 122-241 limits assumed): as above
T1 sequence (P01138 122-241 limits assumed): as above
human NGF (R&D system), sequence (P01138 122-241 limits assumed): as above

B1: Ab16 (antibody, human IgG1, V domains shown)
VH: EVQLVQSGAEVKKPGATVKISCKVSGYSFITYWISWVQQAPGKGLEWMGAIDPSDSDARYSPSFQGRVTITADTSTDTAYMELSSLRSEDTAVYYCAKSDPGYSGYSLLYGFDSWGQGTLVTVSS
VL: DVVMTQSPLSLPVTLGQPASISCRSSQSLVQRNGNTYLSWFQQRPGQPPRLLIYQVSNRYSGVPDRFSGSGSGTDFTLKISRVEAEDVGVYYCGQGAHLPLTFGQGTKVEIK
In the case of B1, in the assay with human NGF (R&D system), the “TF1 Cell Proliferation Inhibition Assay IC50” value stood at 300 pM. In addition, the EC50 in assay [1] came out at 0.0173 ng/mL. Moreover, the IC50 with human NGF-Fc4 (IgG4-Fc) stood at 73.5 ng/mL.

B2: Ab44 Fab (Fab, V domains shown)
VH: EVQLVQSGAEVKKPGESLKISCKGSGYSFITYWISWVRQMPGKGLEWMGAIDPSDSDARYSPSFQGQVTISADKSISTAYLQWSSLKASDTAMYYCAKSDPGYSGYSLLYGFDSWGQGTLVTVSS
VL: B1 VL with F41Y, P48S
As to B2, in the assay with human NGF-Fc protein, the Kd stood at 704 pM, the koff was determined as 5.9e-05 s⁻¹ and the kon turned out to be 83800 M⁻¹ s⁻¹.

B3: Ab59 (antibody, human IgG1, V domains shown)
VH: B2 VH with G24I
VL: B1 VL with V2I, F41Y
Regarding B3, the EC50 in assay [1] is 0.0122 ng/mL. In the assay with human NGF-Fc4 (IgG4-Fc), the IC50 is 74.7 ng/mL.

B4: Ab49 (antibody, human IgG1, V domains shown)
VH: B2 VH
VL: B1 VL with V2I, F41Y
Regarding B4, in assay [1], the EC50 stood at 0.00957 ng/mL. Besides, the IC50 in the assay with human NGF-Fc4 (IgG4-Fc) was found to be 87.8 ng/mL.

B5: Ab44 (antibody, human IgG1, V domains shown)
VH: B2 VH
VL: B1 VL with F41Y, P48S
Consider B5, for which the binding result with BDNF, in the assay with NT3 and with NT4 was “no binding (tested: 100 µg/mL)” throughout. The concentration giving a half-maximal response (EC50) in assay [1] came out at 0.0129 ng/mL. In the assay with human NGF-Fc4 (IgG4-Fc), this molecule had an IC50 of 130 ng/mL.

B6: Ab46 Fab (Fab, V domains shown)
VH: B2 VH
VL: B1 VL
In the assay with human NGF-Fc protein, B6 came in with a Kd of 2890 pM, a koff of 0.000107 s⁻¹ and a kon of 37100 M⁻¹ s⁻¹.

B7: Ab45 (antibody, human IgG1, V domains shown)
VH: B2 VH
VL: B1 VL with F41Y
As to B7, the EC50 in assay [1] was determined as 0.0166 ng/mL. This molecule had an IC50 with human NGF-Fc4 (IgG4-Fc) of 89.8 ng/mL.

B8: Ab37 (antibody, human IgG1, V domains shown)
VH: B1 VH with S28T, T74K
VL: B1 VL with V2I, P48S
On to B8, for which the “TF1 Cell Proliferation Inhibition Assay IC50” value with human NGF (R&D system) was 257 pM. In addition, the EC50 in assay [1] was found to be 0.0317 ng/mL. The 50% inhibitory concentration (IC50) in the assay with human NGF-Fc4 (IgG4-Fc) is 132 ng/mL.

B9: Ab58 (antibody, human IgG1, V domains shown)
VH: B2 VH with G24I
VL: B1 VL with V2I, F41Y, P48S
Take B9: the EC50 in assay [1] amounted to 0.0153 ng/mL. This molecule came in with an IC50 with human NGF-Fc4 (IgG4-Fc) of 80 ng/mL.

B10: Ab46 (antibody, human IgG1, V domains shown)
VH: B2 VH
VL: B1 VL
Take B10: in assay [1], the EC50 worked out at 0.0169 ng/mL. Moreover, the IC50 with human NGF-Fc4 (IgG4-Fc) is 53.3 ng/mL.

B11: Ab10 (antibody, human IgG1, V domains shown)
VH: B1 VH with S28T
VL: B1 VL with V2I
Consider B11, for which the “TF1 Cell Proliferation Inhibition Assay IC50” value with human NGF (R&D system) was 254 pM. The EC50 in assay [1] was 0.0134 ng/mL. Moreover, the 50% inhibitory concentration (IC50) with human NGF-Fc4 (IgG4-Fc) is 80.4 ng/mL.

B12: Ab54 Fab (Fab, V domains shown)
VH: B2 VH with G24I
VL: B1 VL with F41Y, P48S
In the case of B12, in the assay with human NGF-Fc protein, the Kd stood at 148 pM, the koff came out at 4.43e-05 s⁻¹ and the kon turned out to be 300000 M⁻¹ s⁻¹.

B13: Ab48 (antibody, human IgG1, V domains shown)
VH: B2 VH
VL: B1 VL with V2I, F41Y, P48S
B13: the EC50 in assay [1] worked out at 0.0156 ng/mL. Further, the concentration for half-maximal inhibition (IC50) in the assay with human NGF-Fc4 (IgG4-Fc) is 93.5 ng/mL.

B14: Ab55 (antibody, human IgG1, V domains shown)
VH: B2 VH with G24I
VL: B1 VL with F41Y
Take B14: the “TF1 Cell Proliferation Inhibition Assay IC50” value with human NGF (R&D system) stood at 184 pM. Also, the EC50 in assay [1] amounted to 0.0185 ng/mL. The same molecule showed a 50% inhibitory concentration (IC50) with human NGF-Fc4 (IgG4-Fc) of 75.7 ng/mL.

B15: Ab56 (antibody, human IgG1, V domains shown)
VH: B2 VH with G24I
VL: B1 VL
Take B15: in assay [1], the EC50 is 0.0145 ng/mL. The molecule also displayed an IC50 with human NGF-Fc4 (IgG4-Fc) of 66.5 ng/mL.

B16: Ab47 Fab (Fab, V domains shown)
VH: B2 VH
VL: B1 VL with V2I, P48S
Take B16: in the assay with human NGF-Fc protein, the Kd was determined as 3480 pM, the koff was 0.000142 s⁻¹ and the kon amounted to 40700 M⁻¹ s⁻¹.

B17: Ab57 (antibody, human IgG1, V domains shown)
VH: B2 VH with G24I
VL: B1 VL with V2I, P48S
On to B17, for which the EC50 in assay [1] came to 0.011 ng/mL. In the assay with human NGF-Fc4 (IgG4-Fc), this molecule displayed a 50% inhibitory concentration (IC50) of 73.2 ng/mL.

B18: Ab52 (antibody, human IgG1, V domains shown)
VH: B2 VH with G24I
VL: B1 VL with V2I, S7T, L11S, F41Y, S72A
For B18, in assay [1], the concentration for a half-maximal effect (EC50) came to 0.0206 ng/mL. In the assay with human NGF-Fc4 (IgG4-Fc), this molecule registered an IC50 of 70.2 ng/mL.

B19: Ab47 (antibody, human IgG1, V domains shown)
VH: B2 VH
VL: B1 VL with V2I, P48S
Take B19: the EC50 in assay [1] was found to be 0.00942 ng/mL. The molecule also gave a half-maximal inhibitory concentration (IC50) with human NGF-Fc4 (IgG4-Fc) of 66.2 ng/mL.

B20: Ab42 (antibody, human IgG1, V domains shown)
VH: B2 VH
VL: B1 VL with V2I, S7T, L11S, F41Y, S72A
Consider B20, for which the EC50 in assay [1] came to 0.0132 ng/mL. In addition, the IC50 with human NGF-Fc4 (IgG4-Fc) turned out to be 77.3 ng/mL.

B21: Ab60 (antibody, human IgG1, V domains shown)
VH: B2 VH with G24I
VL: B1 VL with V2I
For B21, the EC50 in assay [1] amounted to 0.00896 ng/mL. Also, in the assay with human NGF-Fc4 (IgG4-Fc), the IC50 came to 43.4 ng/mL.

Source of the values: patent US20230220057A1 (STAIDSON BEIJING BIOPHARMACEUTICALS, published 2023).
